Data from US20240010722A1 (published 2024).

T1: mouse MAdCAM (mouse, UniProt Q61826 22-365, limits assumed)
T1 construct: also called mouse MAdCAM-1; muMAdCAM
T1 sequence (looked up): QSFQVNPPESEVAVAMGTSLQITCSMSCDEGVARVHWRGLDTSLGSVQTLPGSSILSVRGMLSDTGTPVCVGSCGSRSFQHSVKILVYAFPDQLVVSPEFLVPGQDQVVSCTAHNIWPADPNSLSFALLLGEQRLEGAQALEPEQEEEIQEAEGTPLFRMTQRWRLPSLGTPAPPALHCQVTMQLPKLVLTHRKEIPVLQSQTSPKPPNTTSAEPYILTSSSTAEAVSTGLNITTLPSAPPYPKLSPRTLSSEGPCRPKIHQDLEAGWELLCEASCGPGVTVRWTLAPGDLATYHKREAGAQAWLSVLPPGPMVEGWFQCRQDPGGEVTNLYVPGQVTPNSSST

T2: human MAdCAM (human, UniProt Q13477 19-317, limits assumed)
T2 construct: also called huMAdCAM; human MAdCAM-1
T2 sequence (looked up): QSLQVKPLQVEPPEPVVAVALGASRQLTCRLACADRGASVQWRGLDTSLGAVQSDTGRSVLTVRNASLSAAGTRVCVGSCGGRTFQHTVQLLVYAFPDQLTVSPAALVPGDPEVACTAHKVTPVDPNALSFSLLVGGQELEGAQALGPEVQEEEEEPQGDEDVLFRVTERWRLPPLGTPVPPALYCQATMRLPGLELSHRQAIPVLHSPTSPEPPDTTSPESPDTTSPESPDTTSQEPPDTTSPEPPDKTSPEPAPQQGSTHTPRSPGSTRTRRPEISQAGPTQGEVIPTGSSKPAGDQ

B1: PMAB26 (bispecific antibody, human IgG1, kappa)
heavy: EVQLLESGGGLVQPGGSLRLSCAASGFTFSNSDMSWVRQAPGKGLEWVSGITISGGSTYYADSVKGRFTISRDNSKNTLYLQMNSLRAEDTAVYYCARGRGGSGWLDYWGQGTLVTVSSASTKGPSVFPLAPSSKSTSGGTAALGCLVKDYFPEPVTVSWNSGALTSGVHTFPAVLQSSGLYSLSSVVTVPSSSLGTQTYICNVNHKPSNTKVDKKVEPKSCDKTHTCPPCPAPEAAGAPSVFLFPPKPKDTLMISRTPEVTCVVVDVSHEDPEVKFNWYVDGVEVHNAKTKPREEQYNSTYRVVSVLTVLHQDWLNGKEYKCKVSNKALPAPIEKTISKAKGQPREPQVYTLPPSREEMTKNQVSLTCLVKGFYPSDIAVEWESNGQPENNYKTTPPVLDSDGSFFLYSKLTVDKSRWQQGNVFSCSVMHEALHNHYTQKSLSLSPGGGGGSGGGGSGGGGSEVQLLESGGGLVQPGGSLRLSCAASGFTFSDFWMHWVRQAPGKGLEWISYISGDGGYTNYADSVKGRFTISRDNSKNTLYLQMNSLRAEDTAVYYCARDRPYYYYMDVWGKGTTVTVSSGGGGSGGGGSGGGGSGGGGSDIQMTQSPSSLSASVGDRVTITCRASQSVSRSLAWYQQKPGKAPKLLIYAASSLQSGVPSRFSGSGSGTDFTLTISSLQPEDFATYYCQQYKSYPVTFGQGTKVEIK
light: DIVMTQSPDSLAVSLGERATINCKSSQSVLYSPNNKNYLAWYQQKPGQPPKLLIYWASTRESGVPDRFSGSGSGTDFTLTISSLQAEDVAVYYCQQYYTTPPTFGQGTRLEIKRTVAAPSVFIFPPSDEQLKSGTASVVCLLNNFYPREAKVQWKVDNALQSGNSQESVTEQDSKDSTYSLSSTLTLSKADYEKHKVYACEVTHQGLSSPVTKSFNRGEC
B2: PMAB27 (bispecific antibody, human IgG1, kappa)
heavy: EVQLLESGGGLVQPGGSLRLSCAASGFTFSNSDMSWVRQAPGKGLEWVSGITISGGSTYYADSVKGRFTISRDNSKNTLYLQMNSLRAEDTAVYYCARGRGGSGWLDYWGQGTLVTVSSASTKGPSVFPLAPSSKSTSGGTAALGCLVKDYFPEPVTVSWNSGALTSGVHTFPAVLQSSGLYSLSSVVTVPSSSLGTQTYICNVNHKPSNTKVDKKVEPKSCDKTHTCPPCPAPEAAGAPSVFLFPPKPKDTLMISRTPEVTCVVVDVSHEDPEVKFNWYVDGVEVHNAKTKPREEQYNSTYRVVSVLTVLHQDWLNGKEYKCKVSNKALPAPIEKTISKAKGQPREPQVYTLPPSREEMTKNQVSLTCLVKGFYPSDIAVEWESNGQPENNYKTTPPVLDSDGSFFLYSKLTVDKSRWQQGNVFSCSVMHEALHNHYTQKSLSLSPGGGGGSGGGGSGGGGSEVQLLESGGGLVQPGGSLRLSCAASGFTFSDFWMHWVRQAPGKGLEWISYISGDSGSTNYADSVKGRFTISRDNSKNTLYLQMNSLRAEDTAVYYCARDRPYYYYMDVWGKGTTVTVSSGGGGSGGGGSGGGGSGGGGSDIQMTQSPSSLSASVGDRVTITCRASQSVSRSLAWYQQKPGKAPKLLIYAASSLQSGVPSRFSGSGSGTDFTLTISSLQPEDFATYYCQQYKSYPVTFGQGTKVEIK
light: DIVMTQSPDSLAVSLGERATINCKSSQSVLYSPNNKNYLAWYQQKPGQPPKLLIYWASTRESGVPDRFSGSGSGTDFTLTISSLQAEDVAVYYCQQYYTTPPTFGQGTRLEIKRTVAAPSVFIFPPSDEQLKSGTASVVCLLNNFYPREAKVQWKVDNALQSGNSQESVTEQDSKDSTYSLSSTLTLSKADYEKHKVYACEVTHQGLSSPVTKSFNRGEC
B3: PMAB28 (bispecific antibody, human IgG1, kappa)
heavy: EVQLLESGGGLVQPGGSLRLSCAASGFTFSNSDMSWVRQAPGKGLEWVSGITISGGSTYYADSVKGRFTISRDNSKNTLYLQMNSLRAEDTAVYYCARGRGGSGWLDYWGQGTLVTVSSASTKGPSVFPLAPSSKSTSGGTAALGCLVKDYFPEPVTVSWNSGALTSGVHTFPAVLQSSGLYSLSSVVTVPSSSLGTQTYICNVNHKPSNTKVDKKVEPKSCDKTHTCPPCPAPEAAGAPSVFLFPPKPKDTLMISRTPEVTCVVVDVSHEDPEVKFNWYVDGVEVHNAKTKPREEQYNSTYRVVSVLTVLHQDWLNGKEYKCKVSNKALPAPIEKTISKAKGQPREPQVYTLPPSREEMTKNQVSLTCLVKGFYPSDIAVEWESNGQPENNYKTTPPVLDSDGSFFLYSKLTVDKSRWQQGNVFSCSVMHEALHNHYTQKSLSLSPGGGGGSGGGGSGGGGSEVQLLESGGGLVQPGGSLRLSCAASGFTFSDFWMHWVRQAPGKGLEWISYISGDSGYTYYADSVKGRFTISRDNSKNTLYLQMNSLRAEDTAVYYCARDRPYYYYMDVWGKGTTVTVSSGGGGSGGGGSGGGGSGGGGSDIQMTQSPSSLSASVGDRVTITCRASQSVSRSLAWYQQKPGKAPKLLIYAASSLQSGVPSRFSGSGSGTDFTLTISSLQPEDFATYYCQQYKSYPVTFGQGTKVEIK
light: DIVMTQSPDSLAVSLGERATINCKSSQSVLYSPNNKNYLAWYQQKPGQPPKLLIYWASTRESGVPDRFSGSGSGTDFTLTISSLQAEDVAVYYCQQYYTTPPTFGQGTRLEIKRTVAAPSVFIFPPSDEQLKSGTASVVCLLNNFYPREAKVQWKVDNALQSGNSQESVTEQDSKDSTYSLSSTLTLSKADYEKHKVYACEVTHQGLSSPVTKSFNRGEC
B4: PMAB36 (bispecific antibody, human IgG1, kappa)
heavy: EVQLLESGGGLVQPGGSLRLSCAASGFTFSNSDMSWVRQAPGKGLEWVSGITISGGSTYYADSVKGRFTISRDNSKNTLYLQMNSLRAEDTAVYYCARGRGGSGWLDYWGQGTLVTVSSASTKGPSVFPLAPSSKSTSGGTAALGCLVKDYFPEPVTVSWNSGALTSGVHTFPAVLQSSGLYSLSSVVTVPSSSLGTQTYICNVNHKPSNTKVDKKVEPKSCDKTHTCPPCPAPEAAGAPSVFLFPPKPKDTLMISRTPEVTCVVVDVSHEDPEVKFNWYVDGVEVHNAKTKPREEQYNSTYRVVSVLTVLHQDWLNGKEYKCKVSNKALPAPIEKTISKAKGQPREPQVYTLPPSREEMTKNQVSLTCLVKGFYPSDIAVEWESNGQPENNYKTTPPVLDSDGSFFLYSKLTVDKSRWQQGNVFSCSVMHEALHNHYTQKSLSLSPGGGGGSGGGGSGGGGSEVQLLESGGGLVQPGGSLRLSCAASGFTFSDFWMHWVRQAPGKGLEWISYISGDSGYTNYADSVKGRFTISRDNSKNTLYLQMNSLRAEDTAVYYCARDRPYYYYMDVWGKGTTVTVSSGGGGSGGGGSGGGGSGGGGSDIQMTQSPSSLSASVGDRVTITCRASQSISRSLAWYQQKPGKAPKLLIYAASSLQSGVPSRFSGSGSGTDFTLTISSLQPEDFATYYCQQYKSYPVTFGQGTKVEIK
light: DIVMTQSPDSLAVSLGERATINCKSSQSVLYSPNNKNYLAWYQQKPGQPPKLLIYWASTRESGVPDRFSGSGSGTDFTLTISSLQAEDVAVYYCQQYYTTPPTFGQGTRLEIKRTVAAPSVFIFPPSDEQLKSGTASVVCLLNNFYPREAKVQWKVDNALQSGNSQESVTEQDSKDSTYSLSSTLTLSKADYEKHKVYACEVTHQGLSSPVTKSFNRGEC
B5: PMAB37 (bispecific antibody, human IgG1, kappa)
heavy: EVQLLESGGGLVQPGGSLRLSCAASGFTFSNSDMSWVRQAPGKGLEWVSGITISGGSTYYADSVKGRFTISRDNSKNTLYLQMNSLRAEDTAVYYCARGRGGSGWLDYWGQGTLVTVSSASTKGPSVFPLAPSSKSTSGGTAALGCLVKDYFPEPVTVSWNSGALTSGVHTFPAVLQSSGLYSLSSVVTVPSSSLGTQTYICNVNHKPSNTKVDKKVEPKSCDKTHTCPPCPAPEAAGAPSVFLFPPKPKDTLMISRTPEVTCVVVDVSHEDPEVKFNWYVDGVEVHNAKTKPREEQYNSTYRVVSVLTVLHQDWLNGKEYKCKVSNKALPAPIEKTISKAKGQPREPQVYTLPPSREEMTKNQVSLTCLVKGFYPSDIAVEWESNGQPENNYKTTPPVLDSDGSFFLYSKLTVDKSRWQQGNVFSCSVMHEALHNHYTQKSLSLSPGGGGGSGGGGSGGGGSEVQLLESGGGLVQPGGSLRLSCAASGFTFSDFWMHWVRQAPGKGLEWISYISGDSGYTNYADSVKGRFTISRDNSKNTLYLQMNSLRAEDTAVYYCARDRPYYYYMDVWGKGTTVTVSSGGGGSGGGGSGGGGSGGGGSDIQMTQSPSSLSASVGDRVTITCRASQSVSSSLAWYQQKPGKAPKLLIYAASSLQSGVPSRFSGSGSGTDFTLTISSLQPEDFATYYCQQYKSYPVTFGQGTKVEIK
light: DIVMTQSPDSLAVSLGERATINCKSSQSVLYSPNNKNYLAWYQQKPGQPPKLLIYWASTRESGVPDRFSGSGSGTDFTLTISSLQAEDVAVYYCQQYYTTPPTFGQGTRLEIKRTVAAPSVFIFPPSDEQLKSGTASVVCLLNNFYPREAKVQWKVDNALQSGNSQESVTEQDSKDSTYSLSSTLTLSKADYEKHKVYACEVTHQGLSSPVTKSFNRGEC

Columns and labels:
[1] = target: T1, mouse MAdCAM; assay: BLI (Octet), binder on AHC tips
Summary of the method: (§1)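 Kinetic rates and the dissociation constant come from a global one-to-one fit, performed in the Octet data analysis software, of binding measured on an Octet96 RED with anti-human IgG Fc biosensors. Test article at 10 μg/mL in assay buffer was captured on the tips for 240 s. MAdCAM-1, serially diluted over seven points from 200 nM down to 3.13 nM, then associated for 120 s before 120 s of dissociation in assay buffer.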

[2] = target: T2, human MAdCAM; assay: BLI (Octet), binder on AHC tips
Summary of the method: as §1

Binder	Kd [1]	koff [1]	kon [1]	response [1]	Kd [2]	koff [2]	kon [2]
B1	134 nM	0.0118 s⁻¹	87900 M⁻¹ s⁻¹	0.132	138 nM	0.0658 s⁻¹	476000 M⁻¹ s⁻¹
B2	1020 nM	0.00469 s⁻¹	4580 M⁻¹ s⁻¹	0.0278	92.2 nM	0.128 s⁻¹	–
B3	103 nM	0.00886 s⁻¹	85900 M⁻¹ s⁻¹	0.083	86.2 nM	0.0902 s⁻¹	1.05e+06 M⁻¹ s⁻¹
B4	206 nM	0.0251 s⁻¹	122000 M⁻¹ s⁻¹	0.169	109 nM	0.0325 s⁻¹	298000 M⁻¹ s⁻¹
B5	176 nM	0.0178 s⁻¹	101000 M⁻¹ s⁻¹	0.152	285 nM	0.0838 s⁻¹	294000 M⁻¹ s⁻¹
